Laboratory results as given in the supplement of paper PMC12338614.

B1: library; numbered along this chain (parent)
chain: MEVVDPQQLGMFTEGELMSVGMDTFIHRIDSTEVIYQPRRKRAKLIGKYLMGDLLGEGSYGKVKEVLDSETLCRRAVKILKKKKLRRIPNGEANVKKEIQLLRRLRHKNVIQLVDVLYNEEKQKMYMVMEYCVCGMQEMLDSVPEKRFPVCQAHGYFCQLIDGLEYLHSQGIVHKDIKPGNLLLTTGGTLKISDLGVAEALHPFAADDTCRTSQGSPAFQPPEIANGLDTFSGFKVDIWSAGVTLYNITTGLYPFEGDNIYKLFENIGKGSYAIPGDCGPPLSDLLKGMLEYEPAKRFSIRQIRQHSWFRKKHPPAEAPVPIPPSPDTKDRWRSMTVVPYLEDLHGADEDEDLFDIEDDIIYTQDFTVPGQVPEEEASHNGQRRGLPKAVCMNGTEAAQLSTKSRAEGRAPNPARKACSASSKIRRLSACKQQ

Variants of: B1
Experiment: STK11 functional score (HeLa growth suppression), rescaled enrichment; synonymous median = 1, nonsense median = 0 (normalised score)
Conditions: with HeLa; variant type: missense
Description: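 Deep mutational scan (TileSeq/POPCode codon randomisation) of full-length codon-optimised STK11 cDNA integrated at a Bxb1 landing pad (AAVS1) in HeLa cells. Restoring functional STK11 suppresses HeLa proliferation. Variant frequencies were measured by NGS before and after about two weeks of growth. The error-corrected enrichment log-ratio was rescaled so that synonymous median = 1 and nonsense median = 0, scores above 1 were compressed, and codon-level and three biological replicate scores were combined; error is the bootstrapped standard error. Scale: synonymous median = 1, nonsense median = 0; below 0.5 = damaging.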

STK11 functional score, by site and new letter:
G47: R 1.31 | S 1.62 | V 0.431 | A 1.4
K62: W 1.38 | V 1.61 | R 1.61 | G 1.23 | C 1.4 | A 1.7 | N 1.6 | T 1.7 | L 1.35 | I 1.35 | Y 1.31 | S 1.39 | D 1.61 | Q 1.56
G52: V 1.1 | F 1.63 | I 1.64 | M -0.407 | C 1.49 | S 1.53 | A 0.893 | L 1.37
L50: P 0.95 | I 1.62 | M 0.814 | H 1.08 | W 0.44 | T 1.29 | S 1.09 | D 1.39 | A 1.52 | V 0.846 | R 1.47 | C 1.41 | G 0.949
E57: L 0.946 | T 1.69 | H 1.53 | V 0.968 | M 1.26 | I 1.15 | P 1.62 | K 1.12 | F 0.821 | R 1.13 | D 0.893 | S 1.17 | G 1.08 | W 0.873 | Y 0.95 | A 1.15 | Q 1.06
E65: D 1.34 | R 0.846 | I 0.756 | L 0.5 | Q 1.18 | M 0.457 | P 0.657 | H 1.36 | N 1.06 | V 0.734 | C 1.07 | G 0.154 | S 1.55 | F 1.22
I46: T 1.24 | E 1.57 | V 0.613 | R 0.979 | G 0.857 | H 1.58 | W 0.0413 | M 0.908 | C 1.17 | A 1.5 | L 1.25 | Y 1.29 | P 0.555 | D 0.149 | S 0.762
Y60: N 0.674 | I 1.23 | S 1.48 | L 0.748 | M 1.64 | V 0.694 | R 1.51 | C 0.482 | W 1.58
K64: V 1.38 | T 1.08 | C 0.813 | L 1.54 | A 1.59 | S 1.53 | N 0.93 | P 0.931 | W 1.39 | G 0.436 | Y 1.39 | Q 1.58 | R 1.4
G56: H 0.0953 | E 1.13 | T 0.231 | S 0.788 | I 0.188 | V 0.273 | Q -0.0947 | F 0.171 | A 0.838 | P 0.136 | L 0.359 | Y -0.102 | C 0.475 | R 0.136 | M 1 | W -0.159
G61: V 0.688 | Q 0.913 | P 0.916 | E 0.195 | W 0.248 | R 0.216 | H 1.41 | Y 0.11 | C 1.13 | M 0.0916 | A 1.35 | L 0.588 | S 0.916
G58: P 0.174 | V -0.308 | W 0.24 | A 0.935 | C 0.374 | E 1.04 | R -0.318 | S 0.988 | I -0.159 | M 0.219 | F 0.0123 | Y -0.201 | L -0.188 | N 0.559
Y49: I 1.24 | M 1.22 | R 0.545 | C 1.01 | L 0.852 | D 0.131 | S 1 | P 0.101 | W 1.01 | V 0.956 | Q 0.0367 | H 1.11 | F 1.12
V63: D -0.044 | I 1.45 | G 0.711 | Q 0.451
